# Source: patent US20050208482A1, “Tat-based immunomodulatory compositions and methods for their discovery and use” (priority 2004, published 2005)
# B1: Tat: conventional immunosuppressive HIV-1 trans-activator of transcription protein, recombinant (SEQ ID NO. 2) (protein)
# chain: MEPVDPRLEPWKHPGSQPKTACTTCYCKKCCFHCQVCFTKKALGISYGRKKRRQRRRAPEDSQTHQVSPPKQPAPQFRGDPTGPKESKKKVERETETHPVD
# modifications: Human immunodeficiency virus type 1
# Tests used:
# [1] = system: monocytes committed to the dendritic cell (DC) lineage; test: Tat induction of CD86 on monocytes committed to the DC lineage (FACScan); assay type: cell-based, Human; settings: committed DCs cultured overnight; Tat 50 nM, LPS 100 ng/mL; Control MFI 9
# Protocol: An additional embodiment of the present invention is that Tat induces monocytes committed to the dendritic cell (DC) lineage to enlarge into activated, CD86+DC APCs (FIG. 1). Human monocytes enriched from PBMCs by Percoll density gradient separation and adherance to anti-CD14 coated magnetic beads (Dynabeads M-450, Dynal Biotech) were committed to differentiate into DCs through five days of culture in GM-CSF (100 ng/mL) and IL-4 (100 ng/mL). Committed DCs were cultured overnight either in medium alone (Control), LPS (100 ng/mL), or Tat (50 nM), after which they were stained with an anti-CD86 antibody (BD Pharmingen) and analyzed by FACScan for CD86 induction (left panel) or generalized activation (right panel, enlargement into box R2, shown for Tat-stimulated cells). The MFIs for CD86 expression are 9 (Control), 30 (LPS), and 187 (Tat), CD86 being a specific determinant of DC activation.
# antibody response to p24 = test: Suppression of humoral immune response to HIV-1 p24 in immunized mice (ELISA); assay type: in vivo; settings: 5 μg p24 + 5 μg Tat in complete Freund's adjuvant s.c.
# Protocol: Tat suppresses the antigen-specific humoral immune response to HIV-1 p24 (FIG. 4). At week 0, mice (4 in each group) were immunized with 5 μg recombinant p24 protein (Chiron, Emeryville, Calif.) and either 5 μg recombinant Tat protein (PT) or 5 μg recombinant ox-Tat* protein (Ag) mixed in 100 μL complete Freund's adjuvant and administered subcutaneously in the flank. Following immunization, sera were collected every other week for 10 weeks and assayed for a specific antibody response to p24 by commercially available ELISA (Abbott Laboratories, Abbott Park, Ill.). […] This response was maintained for at least 6 weeks. The antibody titers at 6 weeks are approximately ten times greater than at week 2 due to maturation of the immune response.
# Human monocytes = test: Tat activation of monocytes/macrophages, Fas ligand (FasL) induction by flow cytometry; assay type: cell-based
# Protocol: Tat activation of monocytes is dose-dependent and saturatable (FIG. 3). Human monocytes were cultured in increasing concentrations of recombinant Tat for six days at which time they were assayed for Fas ligand (FasL) induction as a measure of activation by using flow cytometry (FACScan, Becton Dickinson) to quantitate the intensity of staining (mean fluorescence index (MFI)) with an anti-Fas ligand monoclonal antibody (Nok 1, BD Pharmingen).
# T cells = test: T cell activation by Tat; assay type: cell-based; settings: 50 nM Tat
# CD4+T cells = test: Direct apoptosis of CD4+ T cells by Tat; assay type: cell-based
# Human PBMCs = assay type: cell-based
Molecule,MFI for CD86 expression [1],duration for which suppression of p24 antibody response was maintained (antibody response to p24),p24 antibody titer at 2 weeks (antibody response to p24; compared with ox-Tat* control),concentration of Tat that triggers the effect on the macrophages (Human monocytes; FasL-inducing macrophage effect),"plateau stimulatory concentration for APCs (Human monocytes; six days culture, FasL MFI, higher concentrations did not increase MFI)",T cell activation (T cells),concentration required to initiate direct apoptosis of CD4+T cells (CD4+T cells),proliferation (stimulation index) relative to antigen treatment alone (Human PBMCs),"reversal of Tat suppression, proliferation as % of control (Human PBMCs; with further addition of anti-IL-10 and anti-IL-6 antibodies to the cultures)"
"lipopolysaccharide [LPS, reference compound]",30,–,–,–,–,–,–,–,–
B1,187,at least 6 weeks,completely suppressed,500 pM,50 nM,could not be activated,approximately 500 nM,141%,> 95 % of control
